# Laboratory results reported in patent US20100135997A1 (MEDGENE, published 2010).
# Target: T1, HLA-A*0201 loaded with the Carcinoembryonic antigen (CEA)-derived … peptide (biotin on the C-terminal biotinylation tag)
# T1 construct: Soluble, biotinylated, immobilised on a streptavidin chip
# Assay: Biacore SPR
# Method: SPR measures changes in refractive index expressed in response units (RU) near a sensor surface within a small flow cell, a principle that can be used to detect receptor ligand interactions and to analyse their affinity and kinetic parameters. The probe flow cells were prepared by immobilising the pMHC complexes in flow cells via biotin-tag binding. The assay was then performed by passing soluble ILT-like molecule over the surfaces of the different flow cells at a constant flow rate, measuring the SPR response in doing so.
Kd,koff,Binder
≤ 1 µM,≤ 2 s⁻¹,"SEQ ID NO 61 (receptor, mutated soluble two domain ILT-2) MGHLPKPTLWAEPGSVITMGQPVTLRCQGGQETQEYRLYREKKTAPWITRIPQELVKKGQFPIPSITWEHAGRYRCYYGSDTAGRSESSDPLELVVTGAYIKPTLSAQPSPVVNSGGNVTLQCDSQVAFDGFILCKEGEDEHPQCLNSQPHARGSSRAIFSVGPVSPSRRWWYRCYAYDSNSPYEWSLPSDLLELLVL"
≤ 1 µM,≤ 2 s⁻¹,"SEQ ID NO 77 (receptor, mutated soluble two domain ILT-2) MGHLPKPTLWAEPGSVITQGSPVTLRCQGGQETQEYRLYREKKTAPWITRIPQELVKKGQFPIPSITWEHAGRYRCMQYTLTAGRSESSDPLELVVTGAYIKPTLSAQPSPVVNSGGNVTLQCDSQVAFDGFILCKEGEDEHPQCLNSQPHARGSSRAIFSVGPVSPSRRWWYRCYAYDSNSPYEWSLPSDLLELLVL"
≤ 1 µM,≤ 2 s⁻¹,"SEQ ID NO 82 (receptor, mutated soluble two domain ILT-2) MGHLPKPTLWAEPGSVITQGSPVTLRCQGGQETQEYRLYREKKTAPWITRIPQELVKKGQFPIPSITWEHAGRYRCYYGSDTAGRSESSDPLELVVTGIYRQPTLSAQPSPVVNSGGNVTLQCDSQVAFDGFILCKEGEDEHPQCLNSQPHARGSSRAIFSVGPVSPSRRWWYRCYAYDSNSPYEWSLPSDLLELLVL"
≤ 1 µM,≤ 2 s⁻¹,"SEQ ID NO 63 (receptor, mutated soluble two domain ILT-2) MGHLPKPTLWAEPGSVITLMQPVTLRCQGGQETQEYRLYREKKTAPWITRIPQELVKKGQFPIPSITWEHAGRYRCYYGSDTAGRSESSDPLELVVTGAYIKPTLSAQPSPVVNSGGNVTLQCDSQVAFDGFILCKEGEDEHPQCLNSQPHARGSSRAIFSVGPVSPSRRWWYRCYAYDSNSPYEWSLPSDLLELLVL"
≤ 1 µM,≤ 2 s⁻¹,"SEQ ID NO 79 (receptor, mutated soluble two domain ILT-2) MGHLPKPTLWAEPGSVITMDQPVTLRCQGGQETQEYRLYREKKTAPWITRIPQELVKKGQFPIPSITWEHAGRYRCYYGTQTAGRSESSDPLELVVTGVYIKPTLSAQPSPVVNSGGNVTLQCDSQVAFDGFILCKEGEDEHPQCLNSQPHARGSSRAIFSVGPVSPGRRWWYRCYAYDSNSPYEWSLPSDLLELLVL"
≤ 1 µM,≤ 2 s⁻¹,"SEQ ID NO 81 (receptor, mutated soluble two domain ILT-2) MGHLPKPTLWAEPGSVITMDQPVTLRCQGGQETQEYRLYREKKTAPWITRIPQELVKKGQFPIPSITWEHAGRYRCMQYTLTAGRSESSDPLELVVTGVYIKPTLSAQPSPVVNSGGNVTLQCDSQVAFDGFILCKEGEDEHPQCLNSQPHARGSSRAIFSVGPVSPSRRWWYRCYAYDSNSPYEWSLPSDLLELLVL"
≤ 1 µM,≤ 2 s⁻¹,"SEQ ID NO 65 (receptor, mutated soluble two domain ILT-2) MGHLPKPTLWAEPGSVITMDQPVTLRCQGGQETQEYRLYREKKTAPWITRIPQELVKKGQFPIPSITWEHAGRYRCYYGSDTSQWSASSDPLELVVTGVYIKPTLSAQPSPVVNSGGNVTLQCDSQVAFDGFILCKEGEDEHPQCLNSQPHARGSSRAIFSVGPVSPSRRWWYRCYAYDSNSPYEWSLPSDLLELLVL"
≤ 1 µM,≤ 2 s⁻¹,"SEQ ID NO 72 (receptor, mutated soluble two domain ILT-2) MGHLPKPTLWAEPGSVITQGSPVTLRCQGGQETQEYRLYREKKTAPWITRIPQELVKKGQFPIPSITWEHAGRYRCYYGTQTAGRSESSDPLELVVTGVYIKPTLSAQPSPVVNSGGNVTLQCDSQVAFDGFILCKEGEDEHPQCLNSQPHARGSSRAIFSVGPVSPSRRWWYRCYAYDSNSPYEWSLPSDLLELLVL"
≤ 1 µM,≤ 2 s⁻¹,"SEQ ID NO 84 (receptor, mutated soluble two domain ILT-2) MGHLPKPTLWAEPGSVITQGSPVTLRCQGGQETQEYRLYREKKTAPWITRIPQELVKKGQFPIPSITWEHAGRYRCYYGSDTAGRSESSDPLELVVTGIYKAPTLSAQPSPVVNSGGNVTLQCDSQVAFDGFILCKEGEDEHPQCLNSQPHARGSSRAIFSVGPVSPSRRWWYRCYAYDSNSPYEWSLPSDLLELLVL"
≤ 1 µM,≤ 2 s⁻¹,"SEQ ID NO 78 (receptor, mutated soluble two domain ILT-2) MGHLPKPTLWAEPGSVITMDQPVTLRCQGGQETQEYRLYREKKTAPWITRIPQELVKKGQFPIPSITWEHAGRYRCYYGSQGGLRSESSDPLELVVTGVYIKPTLSAQPSPVVNSGGNVTLQCDSQVAFDGFILCKEGEDEHPQCLNSQPHARGSSRAIFSVGPVSPGRRWWYRCYAYDSNSPYEWSLPSDLLELLVL"
≤ 1 µM,≤ 2 s⁻¹,"SEQ ID NO 83 (receptor, mutated soluble two domain ILT-2) MGHLPKPTLWAEPGSVITQGSPVTLRCQGGQETQEYRLYREKKTAPWITRIPQELVKKGQFPIPSITWEHAGRYRCYYGSDTAGRSESSDPLELVVTGIYLAPTLSAQPSPVVNSGGNVTLQCDSQVAFDGFILCKEGEDEHPQCLNSQPHARGSSRAIFSVGPVSPSRRWWYRCYAYDSNSPYEWSLPSDLLELLVL"
≤ 1 µM,≤ 2 s⁻¹,"SEQ ID NO 69 (receptor, mutated soluble two domain ILT-2) MGHLPKPTLWAEPGSVITLSQPVTLRCQGGQETQEYRLYREKKTAPWITRIPQELVKKGQFPIPSITWEHAGRYRCYYGSDTAGRSESSDPLELVVTGVYIKPTLSAQPSPVVNSGGNVTLQCDSQVAFDGFILCKEGEDEHPQCLNSQPHARGSSRAIFSVGPVSPSRRWWYRCYAYDSNSPYEWSLPSDLLELLVL"
≤ 1 µM,≤ 2 s⁻¹,"SEQ ID NO 80 (receptor, mutated soluble two domain ILT-2) MGHLPKPTLWAEPGSVITMDQPVTLRCQGGQETQEYRLYREKKTAPWITRIPQELVKKGQFPIPSITWEHAGRYRCVIQRGTAGRSESSDPLELVVTGVYIKPTLSAQPSPVVNSGGNVTLQCDSQVAFDGFILCKEGEDEHPQCLNSQPHARGSSRAIFSVGPVSPSRRWWYRCYAYDSNSPYEWSLPSDLLELLVL"
≤ 1 µM,≤ 2 s⁻¹,"SEQ ID NO 76 (receptor, mutated soluble two domain ILT-2) MGHLPKPTLWAEPGSVITQGSPVTLRCQGGQETQEYRLYREKKTAPWITRIPQELVKKGQFPIPSITWEHAGRYRCYYGTQTAGRSESSDPLELVVTGAYIKPTLSAQPSPVVNSGGNVTLQCDSQVAFDGFILCKEGEDEHPQCLNSQPHARGSSRAIFSVGPVSPSRRWWYRCYAYDSNSPYEWSLPSDLLELLVL"
≤ 1 µM,≤ 2 s⁻¹,"SEQ ID NO 71 (receptor, mutated soluble two domain ILT-2) MGHLPKPTLWAEPGSVITQGSPVTLRCQGGQETQEYRLYREKKTAPWITRIPQELVKKGQFPIPSITWEHAGRYRCYYGSQGGLRSESSDPLELVVTGVYIKPTLSAQPSPVVNSGGNVTLQCDSQVAFDGFILCKEGEDEHPQCLNSQPHARGSSRAIFSVGPVSPSRRWWYRCYAYDSNSPYEWSLPSDLLELLVL"
≤ 1 µM,≤ 2 s⁻¹,"SEQ ID NO 73 (receptor, mutated soluble two domain ILT-2) MGHLPKPTLWAEPGSVITQGSPVTLRCQGGQETQEYRLYREKKTAPWITRIPQELVKKGQFPIPSITWEHAGRYRCMQYTLTAGRSESSDPLELVVTGVYIKPTLSAQPSPVVNSGGNVTLQCDSQVAFDGFILCKEGEDEHPQCLNSQPHARGSSRAIFSVGPVSPSRRWWYRCYAYDSNSPYEWSLPSDLLELLVL"
≤ 1 µM,≤ 2 s⁻¹,"SEQ ID NO 68 (receptor, mutated soluble two domain ILT-2) MGHLPKPTLWAEPGSVITLFQPVTLRCQGGQETQEYRLYREKKTAPWITRIPQELVKKGQFPIPSITWEHAGRYRCYYGSDTAGRSESSDPLELVVTGAYIKPTLSAQPSPVVNSGGNVTLQCDSQVAFDGFILCKEGEDEHPQCLNSQPHARGSSRAIFSVGPVSPSRRWWYRCYAYDSNSPYEWSLPSDLLELLVL"
≤ 1 µM,≤ 2 s⁻¹,"SEQ ID NO 64 (receptor, mutated soluble two domain ILT-2) MGHLPKPTLWAEPGSVITMQRPVTLRCQGGQETQEYRLYRERKTAPWITRIPQELVKKGQFPIPSITWEHAGRYRCYYGSDTAGRSESSDPLELVVTGAYIKPTLSAQPSPVVNSGGNVTLQCDSQVAFDGFILCKEGEDEHPQCLSSQPHARGSSRAIFSVGPVSPSRRWWYRCYAYDSNSPYEWSLPSDLLELLVL"
≤ 1 µM,≤ 2 s⁻¹,"SEQ ID NO 62 (receptor, mutated soluble two domain ILT-2) MGHLPKPTLWAEPGSVITMDQPVTLRCQGGQETQEYRLYREKKTAPWITRIPQELVKKGQFPIPSITWEHAGRYRCYYGSDTAGRSESSDPLELVVTGVYIKPTLSAQPSPVVNSGGNVTLQCDSQVAFDGFILCKEGEDEHPQCLNSQPHARGSSRAIFSVGPVSPGRRWWYRCYAYDSNSPYEWSLPSDLLELLVL"
≤ 1 µM,≤ 2 s⁻¹,"SEQ ID NO 70 (receptor, mutated soluble two domain ILT-2) MGHLPKPTLQAEPGSVITQGSPVTLRCQGGQETQEYRLYREKKTAPWITRIPQELVKKGQFPIPSITWEHAGRYRCVIQRGTAGRSESSDPLELVVTGVYIKPTLSAQPSPVVNSGGNVTLQCDSQVAFDGFILCKEGEDEHPQCLNSQPHARGSSRAIFSVGPVSPSRRWWYRCYAYDSNSPYEWSLPSDLLELLVL"
≤ 1 µM,≤ 2 s⁻¹,"SEQ ID NO 74 (receptor, mutated soluble two domain ILT-2) MGHLPKPTLWAEPGSVITQGSPVTLRCQGGQETQEYRLYREKKTAPWITRIPQELVKKGQFPIPSITWEHAGRYRCYYGSDTSQWSASSDPLELVVTGVYIKPTLSAQPSPVVNSGGNVTLQCDSQVAFDGFILCKEGEDEHPQCLNSQPHARGSSRAIFSVGPVSPSRRWWYRCYAYDSNSPYEWSLPSDLLELLVL"
≤ 1 µM,≤ 2 s⁻¹,"SEQ ID NO 75 (receptor, mutated soluble two domain ILT-2) MGHLPKPTLWAEPGSVITQGSPVTLRCQGGQETQEYRLYREKKTAPWITRIPQELVKKGQFPIPSITWEHAGRYRCYYGSQGGLRSESSDPLELVVTGAYIKPTLSAQPSPVVNSGGNVTLQCDSQVAFDGFILCKEGEDEHPQCLNSQPHARGSSRAIFSVGPVSPSRRWWYRCYAYDSNSPYEWSLPSDLLELLVL"
